In PMC5383425, “Differential CLE peptide perception by plant receptors implicated from structural and functional analyses of TDIF-TDR interactions” (PLoS ONE, 2017):
Residue numbers refer to the chain shown, from its start. Square brackets hold non-standard residues; d marks the D form. Ends that are not written are not given here. Hyp = O=C(O)[C@@H]1C[C@@H](O)CN1

Experiments:
Experiment in all cases: ITC; 0.5–1 mM peptide titrated into 10–40 μM ecdTDR; 25°C; 10 mM sodium citrate, 100 mM NaCl, pH 5.5; fitted to one set of binding sites; MicroCal Auto-iTC200
Conditions in all cases: both partners purified
ecdTDR Y188A mutant = molecular target: T1, ecdTDR Y188A mutant (Arabidopsis thaliana, UniProt Q9FII5 30-642, Y188A)
T1 construct: TDR/PXY of A. thaliana, extracellular domain, residues 30-642; source: High Five insect cells (baculovirus), secreted, purified as the wild type (Ni-NTA, size-exclusion chromatography)
T1 sequence (looked up): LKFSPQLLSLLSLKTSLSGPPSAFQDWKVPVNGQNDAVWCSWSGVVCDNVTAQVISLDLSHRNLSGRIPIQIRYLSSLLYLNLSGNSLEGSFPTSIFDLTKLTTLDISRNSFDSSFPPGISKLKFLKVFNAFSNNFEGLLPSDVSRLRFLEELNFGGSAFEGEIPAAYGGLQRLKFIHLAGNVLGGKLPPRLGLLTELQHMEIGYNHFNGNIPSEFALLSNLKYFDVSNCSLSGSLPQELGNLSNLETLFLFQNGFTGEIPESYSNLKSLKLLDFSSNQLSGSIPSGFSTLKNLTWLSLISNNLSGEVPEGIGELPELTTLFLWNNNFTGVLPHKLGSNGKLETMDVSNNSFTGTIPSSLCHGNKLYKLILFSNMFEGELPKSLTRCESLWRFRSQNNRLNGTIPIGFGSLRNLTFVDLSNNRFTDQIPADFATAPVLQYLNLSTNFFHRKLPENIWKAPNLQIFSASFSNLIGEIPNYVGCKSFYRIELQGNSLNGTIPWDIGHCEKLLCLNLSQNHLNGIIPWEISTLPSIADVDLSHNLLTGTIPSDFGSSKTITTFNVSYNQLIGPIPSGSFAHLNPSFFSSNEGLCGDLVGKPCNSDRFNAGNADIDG

ecdTDR R138A mutant = molecular target: T2, ecdTDR R138A mutant (Arabidopsis thaliana, UniProt Q9FII5 30-642, R138A)
T2 construct: TDR/PXY of A. thaliana, extracellular domain, residues 30-642; source: High Five insect cells (baculovirus), secreted, purified as the wild type (Ni-NTA, size-exclusion chromatography)
T2 sequence (looked up): T1 sequence (looked up) with R109A, A159Y

ecdTDR S162A mutant = molecular target: T3, ecdTDR S162A mutant (Arabidopsis thaliana, UniProt Q9FII5 30-642, S162A)
T3 construct: TDR/PXY of A. thaliana, extracellular domain, residues 30-642; source: High Five insect cells (baculovirus), secreted, purified as the wild type (Ni-NTA, size-exclusion chromatography)
T3 sequence (looked up): T1 sequence (looked up) with S133A, A159Y

[1] = molecular target: T4, ecdTDR Y234 alanine mutant (Arabidopsis thaliana, UniProt Q9FII5 30-642, alanine substitution of Y234)
T4 construct: TDR/PXY of A. thaliana, extracellular domain, residues 30-642; The text says only 'mutational analyses' of Y234; source: High Five insect cells (baculovirus), secreted, purified as the wild type (Ni-NTA, size-exclusion chromatography)
T4 sequence (looked up): T1 sequence (looked up) with A159Y, Y205A

Measured: binding result

B1: Tracheary Element Differentiation Inhibitory Factor (TDIF) peptide (peptide)
peptide: HEV[Hyp]SG[Hyp]NPISN
notes: TDIF, the 12-residue CLE peptide processed from CLE41 and CLE44 of A. thaliana; printed as HEV(Hyp)SG(Hyp)NPISN; numbers count on: the 12-residue peptide; CLE44 encodes the same peptide; also called wild type TDIF; wtTDIF; source: synthetic peptide (peptide 2.0)
binds: all assays above
